Laboratory results reported in patent US20050069542A1 (Human Genome Sciences, published 2005).

T1: flag-tagged soluble TL3 (amino acids 105-251 of SEQ ID NO:234) (Homo sapiens (Human), UniProt O75888 105-250)
T1 construct: Heterologous flag-tagged control protein, immobilized in the ELISA; also called flagged tagged TL-3; not shown: Flag tag
T1 sequence: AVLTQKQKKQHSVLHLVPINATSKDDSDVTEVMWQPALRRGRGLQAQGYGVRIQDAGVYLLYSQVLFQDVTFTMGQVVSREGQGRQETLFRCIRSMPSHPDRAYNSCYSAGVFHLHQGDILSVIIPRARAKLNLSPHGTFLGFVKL


Biological target: T1, flag-tagged soluble TL3 (amino acids …)
Experiment: phage ELISA on immobilized flag-tagged soluble TL3
In short: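 Phage displaying scFvs selected against flag-tagged GMAD were screened by ELISA against immobilized flag-tagged soluble TL3 (residues 105-251) as a heterologous flag-tagged counter-target, to check that binding is GMAD-specific.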

Binder	binding result
GMCC125 (scFv) scFv: EVQLVQSGGGLVKPGGSLRLSCAASGFSFSDYSMHWIRQAPGKGLEWLSHIGTSTSYTNYADSVKGRFTISRDNAKNSFYLQMNSLRVDDTAVYFCARGFGGLRGYFDYWGQGTLVTVSSGGGGSGGGGSGGGGSALSSELTQDPAVSVALGQTVKITCQGDRLRRFYASWYQQKPGQAPLLLIYGKNSRPSGIPDRFSGSTSGATASLTITGAQAEDEADYYCNSRDSSGSLHSVFGTGTKVTVLG	no binding
GMCC118 (scFv) scFv: EVQLVQSGGGLVKPGGSLRLSCTASGFSFTNAWMSWVRQAPGKGLEWVGRIKSRNDGGATDYAAPVKGRFTISRDDSKNTLYLQMNSLKTDDTAVYYCTTDNFPLRFLEWLSHPDYWGQGTMVTVSSGGGGSGGGGSGGGGSAQAVLTQPSSVSVSPGQTVTITCSGEKLDNKYISWYQQRPGRSPILVIYQDRKRPSGIPERFSGSNSGNTATLTITGSQPLDEADYYCQAWDSSTAWEFGGGTKLTVLG	no binding
GMCC119 (scFv) scFv: EVQLVQSGPEVKKPGASVKVSCKASNYTFTTYDISWVRQAPGQGLEWMGWISTYSGNTKYAQKFQGRVTMTRDTSTSAAYMELRNLRSDDTAVYFCARDIRVWRGSGSVHYFDPWGRGTTVTVSSGGGGSGGGGSGGGGSAQSALTQPRSVSGSPGQSVTISCTGTSNDVGGYNFVSWYQQHPGKAPKLMVYNVSKRPSGVPDRFSGSKSGNTASLTISGLQAEDEADYYCSSYAHSYTLVFGGGTKVTVLG	no binding
GMCC124 (scFv) scFv: QVTLKESGAEVKKPGASVKVSCKASGYTFTDNALHWVRQAPGQRPEWMAWINTANGNTRYSQKFQGRLTITRDTSASTAFMDLSSLRSEDTAVYYCARQKAYKNYYYYYGMDVWGQGTLVTVSSGGGGSGGGGSGGGGSAQSVVTQPPSVSAAPGQKVTISCSGSSSNIGNNYVSWYQQLPGTAPKLLIYENNKRPSGIPDRFSGSQSGTSATLGISGLQTGDEADYYCGTWDSSLRAGVFGGGTKLTVLG	no binding
GMCC112 (scFv) scFv: QVQLVQSGGGLVQPGGSLRLSCAASGFSFSTYAMSWVRQAPGKGLEWVSGVSDGGDTFYADSVRGRFTLSRDNAKNTLFLQMNSLTAEDTATYYCAKEIARIGVPNFDHWGQGTLVTVSSGGGGSGGGGSGGGGSALETTLTQSPGTLSLSPGDRATLSCRASQSIRNNDVAWYQQKPGQAPRLLIYSASRRATDIPDRFSGSASGTDFTLTISRLEPEDFAMYYCQQYGGSASFGQGTRLEIKR	no binding
GMCC110 (scFv) scFv: QVQLQESGPGLVKPSQTLSLTCTVSGASISSGGYRWIWIRQHPGQGLEWIGDIHYSGSTQYNPSLKSRVALTLDRSKNQFSLQLSSVTAADTAVYYCARDPRGHTYGYGYYFDYWGKGTLVTVSSGGGGSGGGGSGGGGSALSSELTQDPDVSVALGQTVTITCQGDRLRRYYASWYQQKPGQAPVLVIFRKNNRPSGIPDRFSGSSSGDTASLTITGAQAEDEADYYCNSRDTSGTLSFGGGTQLTVLS	no binding
GMBC612 (scFv) scFv: EVQLVESGGGVVQPGGSLRLSCAASGFSFSSYGMQWVRQAPGKGLEWVAFIRYDGSIKYYADSVKGRFTVSRDNSKNTLYLQMNSLRAEDTAVYYCARGYRIVDYWGQGTLVTVSSGGGGSGGGGSGGGGSDIQMTQSPSTLSPSIGDRVTITCRASEGIYHWLAWYQQKPGKAPKLLIYKASSLASGAPSRFSGSGSGTDFTLTISSLQPDDFATYYCQQYSNYPLTFGGGTKLEIKR	no binding
GMCC114 (scFv) scFv: EVQLVESGPEVKKPGSSVKVSCKASGAAAFSSYAISWVRQAPGRGLEWMGGIIPISDTPKYAHKFQGRVTITADESTTTVFMEVSGLRSDDTAVYYCATTTRYGSGTYDYMDVWGQGTMVTVSSGGGGSGGGGSGGGGSALSSELTQDPAVSVALGQTVRITCQGDSLRSYYASWYQQKPGQAPVLVFYGKNKRPSGIPDRFSGSTSGNTASLSITGALADDEADYYCHSRDTSGAQILFGGGTKLTVLG	no binding
